Test results: paper PMC4968834, “Generation and Characterization of an IgG4 Monomeric Fc Platform” (PLoS ONE, 2016)
Read-outs that look alike come from different tables or passages of the source. Blank lines part the entries; values can stand above or below the molecule they belong to.

What was measured:
[1] = molecular target: T1, Recombinant human FcRn (soluble) (human, UniProt P55899 24-297; P61769 21-119, biotin (biotinylated FcRn; which chain and site not stated)); assay: BLI; Octet384; biotinylated FcRn captured on streptavidin biosensors, Fc variants in solution; 100 mM MES pH 6.0, 3 mg/ml BSA, 0.05% Tween 20; steady-state analysis, apparent KD, avidity binding format
[2] = molecular target: Clone 4 (C4), monomeric IgG4 Fc with YTE; assay: BLI; Octet384; binding of inactive IdeS (C94S) to Fc; who was immobilised not told
[3] = molecular target: T1, Recombinant human FcRn (soluble); assay: cell-based or functional assay

Kd [1]: 39 nM
Molecule: IgG1 YTE (antibody)

Kd [1]: 270 nM
Molecule: IgG1 mAb control (antibody)

Kd [1]: 140 nM
Molecule: IgG4 wildtype Fc (domain or fragment)

Molecule: Inactive form of IgG-degrading enzyme of S. pyogenes (IdeS, C94S)
Kd [2]: 3000 nM

Kd ([1]; both partners purified): 160 nM | terminal half-life (T1/2) in hFcRn transgenic mice, 2.5 mg/kg intravenous [3]: 21 h
B1: Onart-Fab-C4 (Fab of Onartuzumab fused to monomeric Fc C4) (Fc fusion)
chain 1: EVQLVESGGGLVQPGGSLRLSCAASGYTFTSYWLHWVRQAPGKGLEWVGMIDPSNSDTRFNPNFKDRFTISADTSKNTAYLQMNSLRAEDTAVYYCATYRSYVTPLDYWGQGTLVTVSSASTKGPSVFPLAPSSKSTSGGTAALGCLVKDYFPEPVTVSWNSGALTSGVHTFPAVLQSSGLYSLSSVVTVPSSSLGTQTYICNVNHKPSNTKVDKKVEPKSCPEFLGGPSVFLFPPKPKDTLYITREPEVTCVVVDVSQEDPEVQFNWYVDGVEVHNAKTKPREEQFNSTYRVVSVLTVLHQDWLNGKEYKCKVSNKGLPSSIEKTISKAKGQPREPQVYTFPPSQEEMTKNQVSLRCLVKGFYPSDIAVEWESNGQPENNYKTTKPVLDSDGSFRLESRLTVDKSRWQEGNVFSCSVMHEALHNHYTQKSLSLSLGK
chain 2: DIQMTQSPSSLSASVGDRVTITCKSSQSLLYTSSQKNYLAWYQQKPGKAPKLLIYWASTRESGVPSRFSGSGSGTDFTLTISSLQPEDFATYYCQQYYAYPWTFGQGTKVEIKRTVAAPSVFIFPPSDEQLKSGTASVVCLLNNFYPREAKVQWKVDNALQSGNSQESVTEQDSKDSTYSLSSTLTLSKADYEKHKVYACEVTHQGLSSPVTKSFNRGEC
